Substrate: O=c1ccn([C@@H]2O[C@H](COP(=O)(O)OP(=O)(O)O[C@H]3O[C@H](CO)[C@H](O)[C@H](O)[C@H]3O)[C@@H](O)[C@H]2O)c(=O)[nH]1
Assay: UDP-Glo glycosyltransferase assay
Format: biochemical, Homo sapiens
Details: no acceptor, 50 mM Tris pH 7.5, 5 mM MnCl2, 37 °C, 60 min

B1: GLT8D1 (Homo sapiens) (protein)
chain: MSFRKVNIIILVLAVALFLLVLHHNFLSLSSLLRNEVTDSGIVGPQPIDFVPNALRHAVDGRQEEIPVVIAASEDRLGGAIAAINSIQHNTRSNVIFYIVTLNNTADHLRSWLNSDSLKSIRYKIVNFDPKLLEGKVKEDPDQGESMKPLTFARFYLPILVPSAKKAIYMDDDVIVQGDILALYNTALKPGHAAAFSEDCDSASTKVVIRGAGNQYNYIGYLDYKKERIRKLSMKASTCSFNPGVFVANLTEWKRQNITNQLEKWMKLNVEEGLYSRTLAGSITTPPLLIVFYQQHSTIDPMWNVRHLGSSAGKRYSPQFVKAAKLLHWNGHLKPWGRTASYTDVWEKWYIPDPTGKFNLIRRYTEISNIK
- Km: 3500 µM

B2: GLT8D1 (Homo sapiens; R92C) (protein)
chain: MSFRKVNIIILVLAVALFLLVLHHNFLSLSSLLRNEVTDSGIVGPQPIDFVPNALRHAVDGRQEEIPVVIAASEDRLGGAIAAINSIQHNTCSNVIFYIVTLNNTADHLRSWLNSDSLKSIRYKIVNFDPKLLEGKVKEDPDQGESMKPLTFARFYLPILVPSAKKAIYMDDDVIVQGDILALYNTALKPGHAAAFSEDCDSASTKVVIRGAGNQYNYIGYLDYKKERIRKLSMKASTCSFNPGVFVANLTEWKRQNITNQLEKWMKLNVEEGLYSRTLAGSITTPPLLIVFYQQHSTIDPMWNVRHLGSSAGKRYSPQFVKAAKLLHWNGHLKPWGRTASYTDVWEKWYIPDPTGKFNLIRRYTEISNIK
- Km: 2500 µM

B3: GLT8D1 (Homo sapiens; G78W) (protein)
chain: MSFRKVNIIILVLAVALFLLVLHHNFLSLSSLLRNEVTDSGIVGPQPIDFVPNALRHAVDGRQEEIPVVIAASEDRLWGAIAAINSIQHNTRSNVIFYIVTLNNTADHLRSWLNSDSLKSIRYKIVNFDPKLLEGKVKEDPDQGESMKPLTFARFYLPILVPSAKKAIYMDDDVIVQGDILALYNTALKPGHAAAFSEDCDSASTKVVIRGAGNQYNYIGYLDYKKERIRKLSMKASTCSFNPGVFVANLTEWKRQNITNQLEKWMKLNVEEGLYSRTLAGSITTPPLLIVFYQQHSTIDPMWNVRHLGSSAGKRYSPQFVKAAKLLHWNGHLKPWGRTASYTDVWEKWYIPDPTGKFNLIRRYTEISNIK
- Km: 2300 µM
